In publication PMC7244311:

Target: talin R3 IVVI domain in the (R3)-(I91)8 construct (mouse)
Experiment: magnetic tweezers force spectroscopy

A concentration at half the maximum binding velocity, 9 pN of 90 nM and a stoichiometry N of 2 were found for vinculin head (domain or fragment) in this work.
